Values of other authors as cited in publication PMC8160820.

Molecular target: PEDF-R (Homo sapiens) (UniProt Q96AD5)
Chain of UniProt Q96AD5 (Q96AD5 whole entry): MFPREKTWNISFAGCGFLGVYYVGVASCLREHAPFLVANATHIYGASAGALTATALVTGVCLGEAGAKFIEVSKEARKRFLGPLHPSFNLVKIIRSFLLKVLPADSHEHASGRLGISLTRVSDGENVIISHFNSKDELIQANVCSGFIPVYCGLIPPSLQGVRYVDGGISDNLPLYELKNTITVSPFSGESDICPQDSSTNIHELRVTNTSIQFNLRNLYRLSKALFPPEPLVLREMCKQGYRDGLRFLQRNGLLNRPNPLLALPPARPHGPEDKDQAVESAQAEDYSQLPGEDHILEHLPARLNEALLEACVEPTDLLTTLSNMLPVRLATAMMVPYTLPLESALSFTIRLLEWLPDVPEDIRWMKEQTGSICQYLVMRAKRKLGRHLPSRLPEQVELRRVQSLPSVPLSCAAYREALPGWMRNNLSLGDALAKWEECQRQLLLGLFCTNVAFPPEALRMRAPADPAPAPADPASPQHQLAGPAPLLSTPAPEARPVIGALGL

Kd: 3 nM
Substance: PEDF (from UniProt P36955)
